The numbers were not newly measured in US11937625B2, “Oral administration formulation of blueberry extract as a coadjuvant for preserving the health of human precorneal film” (CENTRO DE RETINA MEDICA Y QUIRURGICA, S.C., priority 2017, dated 2024), which cites them from elsewhere.

The conditions of series [1]: day 60; oral supplement; post-cataract surgery patients; control group 7.86 (±0.86) seconds.
Series [2] concerns pepsin. Particulars: in mice; Nojima et al (2008).

B1: lactoferrin (protein, UniProt P02788 20-710, looked up)
Lactotransferrin: GRRRSVQWCAVSQPEATKCFQWQRNMRKVRGPPVSCIKRDSPIQCIQAIAENRADAVTLDGGFIYEAGLAPYKLRPVAAEVYGTERQPRTHYYAVAVVKKGGSFQLNELQGLKSCHTGLRRTAGWNVPIGTLRPFLNWTGPPEPIEAAVARFFSASCVPGADKGQFPNLCRLCAGTGENKCAFSSQEPYFSYSGAFKCLRDGAGDVAFIRESTVFEDLSDEAERDEYELLCPDNTRKPVDKFKDCHLARVPSHAVVARSVNGKEDAIWNLLRQAQEKFGKDKSPKFQLFGSPSGQKDLLFKDSAIGFSRVPPRIDSGLYLGSGYFTAIQNLRKSEEEVAARRARVVWCAVGEQELRKCNQWSGLSEGSVTCSSASTTEDCIALVLKGEADAMSLDGGYVYTAGKCGLVPVLAENYKSQQSSDPDPNCVDRPVEGYLAVAVVRRSDTSLTWNSVKGKKSCHTAVDRTAGWNIPMGLLFNQTGSCKFDEYFSQSCAPGSDPRSNLCALCIGDEQGENKCVPNSNERYYGYTGAFRCLAENAGDVAFVKDVTVLQNTDGNNNEAWAKDLKLADFALLCLDGKRKPVTEARSCHLAMAPNHAVVSRMDKVERLKQVLLHQQAKFGRNGSDCPDKFCLFQSETKNLLFNDNTECLARLHGKTTYEKYLGPQYVAGITNLKKCSTSPLLEACEFLRK
Consider B1, for which, in series [1], the fluorescein break-up time was 13.9 (±0.99) seconds.

B2: mono-PEGylated lactoferrin: lactoferrin with covalent attachment of polyethylene glycol (PEG), synthesized by Nojima et al (2008) (conjugate, UniProt P02788 20-710, looked up)
Lactotransferrin: GRRRSVQWCAVSQPEATKCFQWQRNMRKVRGPPVSCIKRDSPIQCIQAIAENRADAVTLDGGFIYEAGLAPYKLRPVAAEVYGTERQPRTHYYAVAVVKKGGSFQLNELQGLKSCHTGLRRTAGWNVPIGTLRPFLNWTGPPEPIEAAVARFFSASCVPGADKGQFPNLCRLCAGTGENKCAFSSQEPYFSYSGAFKCLRDGAGDVAFIRESTVFEDLSDEAERDEYELLCPDNTRKPVDKFKDCHLARVPSHAVVARSVNGKEDAIWNLLRQAQEKFGKDKSPKFQLFGSPSGQKDLLFKDSAIGFSRVPPRIDSGLYLGSGYFTAIQNLRKSEEEVAARRARVVWCAVGEQELRKCNQWSGLSEGSVTCSSASTTEDCIALVLKGEADAMSLDGGYVYTAGKCGLVPVLAENYKSQQSSDPDPNCVDRPVEGYLAVAVVRRSDTSLTWNSVKGKKSCHTAVDRTAGWNIPMGLLFNQTGSCKFDEYFSQSCAPGSDPRSNLCALCIGDEQGENKCVPNSNERYYGYTGAFRCLAENAGDVAFVKDVTVLQNTDGNNNEAWAKDLKLADFALLCLDGKRKPVTEARSCHLAMAPNHAVVSRMDKVERLKQVLLHQQAKFGRNGSDCPDKFCLFQSETKNLLFNDNTECLARLHGKTTYEKYLGPQYVAGITNLKKCSTSPLLEACEFLRK
modifications: mono-PEGylated
On to B2, for which the “resistance to pepsin proteolysis” value in series [2] is “greater resistance”.
